From patent US20160195541A1 come the findings set out here.

“And” between values parts separate entries of the source, which are not always exact repeats. Equal entries are not always repeated.

The target of assay [1] is aggregated human IgG (aggregated Beriglobin, aggregated fraction isolated by size exclusion chromatography) (human). Briefly: FACS competition on Raji cells, mean of 25 experiments.
Assay [2] shares this target. Briefly: FACS competition on Raji cells (FACS007), inhibition of aggregated IgG binding to cell FcγRIIB at 0.03125 µg/µL SM101.
Assay [3] has the same target. The experiment in a line: apparent KD, FACS competition on Raji cells (Example 1), as told in the description.
Assay [4] has the same target. Briefly: apparent KD, FACS competition on Raji cells, mean of tests #1-17 without #4 and #6.
Assay [5] has the same target. Briefly: apparent KD, FACS competition on Raji cells, mean of 25 experiments.
For assay [6] the target is unchanged. The experiment in a line: FACS competition on Raji cells (FACS007), inhibition of aggregated IgG binding to cell FcγRIIB at 0.25 µg/µL SM101.
The target is the same in assay [7]. The experiment in a line: apparent KD, Langmuir fit of FACS competition on Raji cells (FACS021).
Assay [8] shares this target. Briefly: FACS competition on Raji cells (FACS007), inhibition of aggregated IgG binding to cell FcγRIIB at 0.0625 µg/µL SM101.
The target is the same in assay [9]. The experiment in a line: apparent KA, Langmuir fit of FACS competition on Raji cells (FACS007).
Assay [10] has the same target. The experiment in a line: apparent KD, Langmuir fit of FACS competition on Raji cells (FACS007).
The target is the same in assay [11]. The experiment in a line: FACS competition on Raji cells (FACS007), inhibition of aggregated IgG binding to cell FcγRIIB at 0.0078 µg/µL SM101.
Assay [12] shares this target. The experiment in a line: FACS competition on Raji cells (FACS007), inhibition of aggregated IgG binding to cell FcγRIIB at 0.125 µg/µL SM101.
Assay [13] shares this target. Briefly: apparent KA, Langmuir fit of FACS competition on Raji cells (FACS021).
The target is the same in assay [14]. Briefly: apparent KD, FACS competition on Raji cells, mean of tests #18-25.
The target is the same in assay [15]. The experiment in a line: FACS competition on Raji cells (FACS007), inhibition of aggregated IgG binding to cell FcγRIIB at 0.5 µg/µL SM101.
Assay [16] has the same target. The experiment in a line: sigmoid logistic fit of FACS competition on Raji cells (FACS007): inhibition of aggregated IgG binding to cell FcγRIIB.
Assay [17] shares this target. Briefly: FACS competition on Raji cells (FACS021), inhibition of aggregated IgG binding to cell FcγRIIB at 0.0625 µg/µL.
The target is the same in assay [18]. Briefly: FACS competition on Raji cells (FACS021), inhibition of aggregated IgG binding to cell FcγRIIB at 0.03125 µg/µL.
The target is the same in assay [19]. Briefly: sigmoid logistic fit of FACS competition on Raji cells (FACS021): inhibition of aggregated IgG binding to cell FcγRIIB.
The target is the same in assay [20]. The experiment in a line: FACS competition on Raji cells (FACS007), inhibition of aggregated IgG binding to cell FcγRIIB at 0.0156 µg/µL SM101.
Assay [21] has the same target. The experiment in a line: FACS competition control on Raji cells: constant aggregated Beriglobin, CSA in place of SM101; bound aggregated IgG detected with anti-human IgG(H+L)-PE; interaction tested for blocking: aggregated IgG with membrane-bound FcγRIIB.
The mark [22] stands for this setting: SM101 investigational medicinal product.

As to “SM101 (soluble human FcγRIIB, sFcγRIIB) (from UniProt P31994 46-217) (receptor)”, the concentration for half-maximal inhibition (IC50) is 10.6 µg/mL in assay [1]; 17.7 µg/mL in assay [16]; 12.9 µg/mL and 16.2 µg/mL in assay [19]. The norm. Signal (% inhibition) turned out to be 70.5% in assay [2]; 98.4% in assay [6]; 91.2% in assay [8]; 23.2% in [11]; 94.9% in assay [12]; 97.3% in assay [15]. Also, the norm. Signal (% inhibition) in [17] (setting [22]) worked out at 89.6%; in assay [17] (SM101 reference standard), 87.3%; in [18] (setting [22]), 75.7%; in assay [18] (SM101 reference standard), 75.9%; in [20], 43%. The Kd in assay [3] is 980 nM; in [4] it was 680 nM; in assay [5], 530 nM; in assay [7], 740 nM and 900 nM; in assay [10] it was 990 nM; in [14] it was 260 nM. The Ka was 1.02e+06 M⁻¹ in assay [9]; 1.35e+06 M⁻¹ and 1.11e+06 M⁻¹ in [13].

B1: chicken serum albumin (protein, UniProt P19121 24-615, looked up)
Albumin: FARDAEHKSEIAHRYNDLKEETFKAVAMITFAQYLQRCSYEGLSKLVKDVVDLAQKCVANEDAPECSKPLPSIILDEICQVEKLRDSYGAMADCCSKADPERNECFLSFKVSQPDFVQPYQRPASDVICQEYQDNRVSFLGHFIYSVARRHPFLYAPAILSFAVDFEHALQSCCKESDVGACLDTKEIVMREKAKGVSVKQQYFCGILKQFGDRVFQARQLIYLSQKYPKAPFSEVSKFVHDSIGVHKECCEGDMVECMDDMARMMSNLCSQQDVFSGKIKDCCEKPIVERSQCIMEAEFDEKPADLPSLVEKYIEDKEVCKSFEAGHDAFMAEFVYEYSRRHPEFSIQLIMRIAKGYESLLEKCCKTDNPAECYANAQEQLNQHIKETQDVVKTNCDLLHDHGEADFLKSILIRYTKKMPQVPTDLLLETGKKMTTIGTKCCQLGEDRRMACSEGYLSIVIHDTCRKQETTPINDNVSQCCSQLYANRRPCFTAMGVDTKYVPPPFNPDMFSFDEKLCSAPAEEREVGQMKLLINLIKRKPQMTEEQIKTIADGFTAMVDKCCKQSDINTCFGEEGANLIVQSRATLGIGA
Turning to B1, in assay [21], the Median PE-A of aggregated IgG bound to Raji cells at 0.0156 µg/µL CSA was 3770, the Median PE-A of aggregated IgG bound to Raji cells at 0.03125 µg/µL CSA turned out to be 3700, the Median PE-A of aggregated IgG bound to Raji cells at 0.0625 µg/µL CSA was determined as 3830 and the Median PE-A of aggregated IgG bound to Raji cells at 0.125 µg/µL CSA came out at 4140. In assay [21], this molecule yielded a Median PE-A of aggregated IgG bound to Raji cells at 0.25 µg/µL CSA of 4570, a Median PE-A of aggregated IgG bound to Raji cells at 0.5 µg/µL CSA of 4940 and a Median PE-A of aggregated IgG bound to Raji cells at the CSA concentration labelled 0'078 (0.0078 µg/µL by the series in legend paragraph 80) of 4180.

By IC50 is commonly meant the concentration at which inhibition is half-maximal.
